Experimental data taken from the DeepSol protein solubility set.

assay: soluble on expression in E. coli; label from the status in PepcDB or PDB records

**Q.** For “MGGSHHHHHHGMASALVKSRLNSWFQHRPPGASPERYLGLPGSLKWEDRGPSGQGQGQFLIQQVTLKIPISIEFVFESGSAQAGGNQALPRLAGSLLTQALESHAEGFRERFEKTFQLKEKGLSSGEQVLGQAALSGLLGGIGYFYGQGLVLPDIGVEGSEQKVDPALFPPVPLFTAVPSRSFFPRGFLWDEGFHQLVVQRWDPSLTREALGHWLGLLNADGWIGREQILGDEARARVPPEFLVQRAVHANPPTLLLPVAHMLEVGDPDDLAFLRKALPRLHAWFSWLHQSQAGPLPLSYRWRGRDPALPTLLNPKTLPSGLDDYPRASHPSVTERHLDLRCWVALGARVLTRLAEHLGEAEVAAELGPLAASLEAAESLDELHWAPELGVFADFGNHTKAVQLKPRPPQGLVRVVGRPQPQLQYVDALGYVSLFPLLLRLLDPTSSRLGPLLDILADSRHLWSPFGLRSLAASSSFYGQRNSEHDPPYWRGAVWLNVNYLALGALHHYGHLEGPHQARAAKLHGELRANVVGNVWRQYQATGFLWEQYSDRDGRGMGCRPFHGWTSLVLLAMAEDY”, which “soluble on expression in E. coli” value is on record?
**A.** not soluble

**Q.** With “TKDFSWRTSLNFAYNKNKIVDLQYKENLTSRGLSLAGMSGDYSNLWIIGQPIDINYNLMTLGVWQLDEAEEAAKYGCKPGQYKPLDLNEDGVIDDKDRVIDGKRTPDWTGGMTNTFTYKEFDLSFQAAFQAGARARNQFYVSYALENNNLNFNNLRKDYWTPENPTNASAQPSNMGTYRSKAGSWGNAKSEMSHTMFSSNFLKISYITLGYTFKPSVLEKMKLGNLRLYATVQNPFIFCAKDVVDPEQLNVSINTSDAMTRNVIFGINLSFK” as the sequence, how does the “soluble on expression in E. coli” value read?
**A.** not soluble

**Q.** For “MGSDKIHHHHHHMNTYHPFSLTTPSTLMIQDWAQTNQNNKEVIAGFTTKNGGVSQKPFESLNTGLHVHDKDADVVKNREYIADMFNTDLQSWVFADQTHDNRVQKVTQRDRGKGAREYHTALKATDGIYTNEKNVFLALCFADCVPLFFYDPVKSLVGVAHAGWKGTVKQIGREMVKQWTEKEGSNPSDIYAVIGPSISGACYTVDDRVMDAVRALPVSADLAANQTAKAQYQLDLKELNRLILMDSGLASEQISVSGLCTESEPSLFYSHRRDQGKTGRMMSFIGMKEA”, which “soluble on expression in E. coli” value is on record?
**A.** not soluble

**Q.** Which “soluble on expression in E. coli” value does the source give for “GSSIFDIYVVTADYLPLGAEQDAITLREGQYVEVLDAAHPLRWLVRTKPTKSSPSRQGWVSPAYLDRRLKL” here?
**A.** soluble

**Q.** For “MGSDKIHHHHHHMPSDAINEGQAQDAPRMRAAEYVRMSTEHQQYSTENQADKIREYAVRRGIDIIKTYADEGKSGLRIDGRQALQSLIRDVEAGTADFDIILVYDVSRWGRFQDADESAYYEYICRRAGIQVAYCAEQFENDGSPVSTIVKGVKRAMAGEYSRELSAKVFAGQCRLIELGYRQGGPAGYGLRRTLVDVKGEVKAELSRGEHKSLQTDRVILRPGPDEEVTIVNQIYRWFIDDGMYESEIAGRLNGMRVRTDLDREWTRATVREVLTNEKYVGHNVYNRVSFKLKKLRVVNPPEMWIRRDAAFPGVVPPDVFYTAQGIIRARAHRYTNEELIERLRGLYRNRGFLSGVVINETEDMPCAAVYAHRFGSLVRAYQLVGFTPDRDYRYVEINRALRRMHPDVLRQIEGQIAGLGGIVQRDAATDVLIVNGEFTVSIVLARCHEAAGMPNRWKIRLDSSLAPDISVAARLESGNQAVRDYYLLPKVDIGSSNISLAERNAAEFESYRFETLDYLYGMAARSRVRLAA”, which “soluble on expression in E. coli” value is on record?
**A.** not soluble

**Q.** For “MTAAIAAPAYDAIVIGSGIGGLVTATQLAAKGAKVLVLERYLIPGGSAGWFEREGYRFDFGASIIFGFGDPGTTNLLTPPLADVGQALETIPDPVQIHYHLPNQLDLKVHRDYEAFLQELIAQFPQEAEGIRRFYDECWQVFNCLNAMPLLSLEEPKYLFNVFLQHPLACLGLVKYLPQNVGDIARRYIRNPDLLKFIDMECYCWSVVPATMTPMINAGMVFSDRHYGGINYPKGGVGRIAEKLVAGLEAKGSSIRYKARVTRILTEKGRAIGVELADGEKLYAKRIISNATRWNTFG”, which “soluble on expression in E. coli” value is on record?
**A.** soluble

**Q.** With “MAHHHHHHMLRGLVNADALTSEQEEHIDQLQHEIDEIWNRRGNYQVDPDAWETMPFFMENITEEDIDKNANCAALASIVYEEVPPDEIAENRKEHGNRALNMALNPNQERRENLARAACYSYTEALQAKGKNTKLSSTIYANRSLAQFIVGNYGHALADAQRSIILDPNYRKAYYRAAKCAFALKKYDMGLQMLEKGRRVVDPPMDAAAQAEFLEMETNCLQGKEQQASEEAKQRRAARSQAAKVSNVARAITSSGIKISSRAEVTSEQMGVYGNPKPYFDTDGMLHVPLLFMYDEYQQTDIMHDVACDVCAAELLDELMPFPWDDRGRYQRLADIVVFFKIDDGANDVQYYEVDQSWPLLEVFREETYEMPQLMPVLHVVCKTSELVDRLEIHRVA” as the sequence, how does the “soluble on expression in E. coli” value read?
**A.** soluble

**Q.** With “MGSDKIHHHHHHMKELAIASRDLVSPDGLAGYLRFVNAQPLLRPEEERDLARRLRDHGDVDAAKDLVLSHLRFVVRVARGYRGYGLQEADLIQEGNIGLMKAVKRYDPDHGVRLVSFAVHWVKAEIHEFILRNWRIVKVATTKAQRKLFFNLRSSRSHTGWMSGEESAAMADDLGVTQAQVLEMEGRMSGYDYSLNLEPDEEREGGRAPDLADPTGSPIEQLVERDWDQQQHRALHTALSALPQRDRYIIENRWLSDDPKTLQVLGDELGVSAERVRQLEKSSMGKLRQQMLTTAAVA” as the sequence, how does the “soluble on expression in E. coli” value read?
**A.** not soluble

**Q.** Which “soluble on expression in E. coli” value does the source give for “MHHHHHHENLYFQSNAMGSTRPIDGLTDEDIREILTRYKKIALVGASPKPERDANIVMKYLLEHGYDVYPVNPNYEEVLGRKCYPSVLDIPDKIEVVDLFVDPAKAWRFVVYAIKKGAKVVWFQYNTYYPLAARQAKEAGLIIVANRCMMREHERLLGEK” here?
**A.** soluble

**Q.** With “MKTVKHLLQEKGHTVVAIGPDDSVFNAMQKMAADNIGALLVMKDEKLVGILTERDFSRKSYLLDKPVKDTQVKEIMTRQVAYVDLNNTNEDCMALITEMRVRHLPVLDDGKVIGLLSIGDLVKDAISQHQFVINQLERYIYDTREI” as the sequence, how does the “soluble on expression in E. coli” value read?
**A.** soluble

**Q.** Which “soluble on expression in E. coli” value does the source give for “MGFLQRIGLLPQVTTTPTQHELLAPLLDTYIGVVTEMPTEELFAEQPHLRTVTTFIARAISSTSLHVYRRDSDGGRHRVRDSDLAKLMRRSSKTELMQDMLNGSILDLCLYDEFIWVAMEDSDSGEWELHRIPPTWIKQRKHSDPWTLEWMGIIDAKTGQQIKIPAERIIHVHGYNPTSTSRGLTPVVALRETLKEQLESAAYRGQLWRNGPRLGGVITRPKDAKWDSTSRKRFKAAWQSQYSGRGSGAGGTPILEDGMQFVPAHLKAQDEQVVEMTKLSLQTVASIYHVNPVMVGLLDNANYSNVREFRRSLYGDSLGPIIKQVEGVINEFLRPMIDDDDAVYVEFNLDEKLRASFEEKAAVTSTAVGGPWMTRNEARAMNNLPAIDGGEDLITPLNVTTENSESNNDVGLEEES” here?
**A.** not soluble

**Q.** For “MITPDLESGVKVWHLVKNHDHGDQKEGDRGSKMVSEIYLTRLLATKGTLQKFVDDLFETLFSTVHRGSALPLAIKYMFDFLDEQADRHSIHDTDVRHTWKSNCLPLRFWVNVIKNPQFVFDIHKGSITDACLSVVAQTFMDSCSTSEHRLGKDSPSNKLLYAKDIPSYKNWVERYYADIAKLPAISDQDMNAYLAEQSRLHATEFNMLSALNEIYSYVSKYSEELIGALEQDEQARRQRLAYKVEHLINAMSIES”, which “soluble on expression in E. coli” value is on record?
**A.** not soluble

**Q.** For “MAHHHHHHMTAAERLRRSRDNAVHHPKPSAATSSTISPALALSSSNSSPSANAAVPIEISPPPPNQGAVMIRYSKQQLLSLRPAAIEHVMRGRVVDHPPFLKIPESFAPLLSLPFAMEYVNVDAAMQLVEHRSYASRPASSPPTSVARTEDLDDEAQARLYTCPVCAQGRLHSCTAIQHILQRTSRYFMSTKLGAALMQPALVVESLLQLALVFDAKQSSLRLRMLAEQSPRVVHLVEEYLCGEGYHLPLPPVTAHEDWAALNAMLRFDAIRDNKTRVITDLSKHWKKRRTQFEQFVYFFAFRDARPVRPAKNIITKSAKPGMVAMLTGDVPAMVLLHRLGFFIPPDYYWKVFPFLRQALGEGTLSYDVVRHLGLYLSSAQPADMYNPVEVPIHA”, which “soluble on expression in E. coli” value is on record?
**A.** soluble

**Q.** With “MKRLSFLTLRPRHLSFLTLQRRNALRDALRHRSAPRRAFRIGRRASRTACDAERRTIVRLSFRALQPRRLSLLTLQRRNALRDALRHRSAPRRVFRIGRRASRTACDAQRCTIVRLSFRALQPRRLSFLTLQRRSALRDALHHKSAPRCTFKIGRGASRTACDAERRTIVRLSFRALQPRRLSFLTLQRRNALGDALRHKSAPRCTFKIGREASRTACDAERRTIVRLSFRALQPRRLSFLTLQRRNALRDALRHKSAPRRAFRIGRRASRTACDAERRTIVSQISLNALEHHHHHH” as the sequence, how does the “soluble on expression in E. coli” value read?
**A.** not soluble

**Q.** For “MGHHHHHHSHMSENELSAEDTAFLEKAFELAQEALDEDEVPVGCVFVVNGTEIGRGRNRVNETGDPTRHAEMVAVTEMWKEHGTGCEDLLKKSTLYVSLEPCIMCSSAMYQLGIRKMVYGAENPRFGGVRSVGSAEKYRMEDNVQIVAGIWSERSVAMLKTFYEKLNPFAPPEKRKTKKPKLDEIK”, which “soluble on expression in E. coli” value is on record?
**A.** not soluble

**Q.** With “MASVPTHQSEKEKKNDELSTAILKDKVKPNRLIVDQSEQDDNSVIAVSQAKMDELGLFRGDAVILKGKKRKESVAIIVSDESCPNEKVRMNRVVRNNLRIRLGDVVSITPAPNLSYGTRIHVLPIDDTIEGLTGNLFDVFLKPYFLEAYRPLHKGDIFTVQAAMRTVEFKVVETEPAPACIVSPDTMIHYEGDPIKREEEEESMNDIGYDDLGGVRKQLAQIKEMVELPLRHPQLFKAIGIKPPRGILLFGPPGTGKTLIARAVANETGSFFFLINGPEVMSKMSGESESNLRKAFEECEKNQPAILFIDEIDAIAPKREKTNGEVERRIVSQLLTLMDGVKGRSNLVVIAATNRPNSIDGALRRFGRFDREIDIGIPDAVGRLEILRIHTKNMKLADDVDLEQIANECHGFVGADLASLCSEAALQQIREKMELIDLEDDQIDAEVLNSLAVTMENFRFAQGKSSPSALREAVVETPNTTWSDIGGLQNVKRELQELVQYPVEHPEKYLKFGMQPSRGVLFYGPPGCGKTLLAKAIANECQANFISIKGPELLTMWFGESEANVRDVFDKARAAAPCVLFFDELDSIAKARGGGAGGDGGGASDRVINQVLTEMDGMNAKKNVFIIGATNRPDIIDPAVLRPGRLDQLIYIPLPDEASRHQILKASLRKTPLSKDLDLTFLAKNTVGFSGADLTEICQRACKLAIRESIEKEIRIEKERQDRQARGEELMEDDAVDPVPEITRAHFEEAMKFARRSVTDNDIRKYEMFAQTLQQSRGFGNNFKFPGEQRGSDAPSAPVPAQDDDDLYN” as the sequence, how does the “soluble on expression in E. coli” value read?
**A.** soluble

**Q.** For “SNAMSELSYRRILLKLSGEALMGDGDYGIDPKVINRLAHEVIEAQQAGAQVALVIGGGNIFRGAGLAASGMDRVTGDHMGMLATVINALAMQDALEKLGAKVRVMSAIKINDVCEDFIRRRAIRHLEKGRIAIFAAGTGNPFFTTDSGAALRAIEIGADLLLKATKVDGVYDKDPKKHSDAVRYDSLTYDEVIMQGLEVMDTAAFALARDSDLPLRIFGMSEPGVLLRILHGAQIGTLVQGRS”, which “soluble on expression in E. coli” value is on record?
**A.** soluble

**Q.** With “MARGPGPLGMPRPDTVAMPKRGKRLKFRAHDACSGRVTVADYANSDPAVVRSGRVKKAIANAVQQEVKSLCGLEASQVPAEEALSGAGEPCDIIDSSDEMDAQEESIHERTVSRKKKSKRHKEELDGAGGEEYPMDIWLLLASYIRPEDIVNFSLICKNAWTVTCTAAFWTRLYRRHYTLDASLPLRLRPESMEKLRCLRACVIRSLYHMYEPFAARISKNPAIPESTPSTLKNSK” as the sequence, how does the “soluble on expression in E. coli” value read?
**A.** not soluble

**Q.** Which “soluble on expression in E. coli” value does the source give for “MAKTPGLNLSISERASNRLAEIYRNSKENLRISVESGGCHGFQYNLTLEPATKPDIKNDVKDKEFSDDLDDDDSKDIIYVLPEDKGRVIIDSKSLNILNNTTLTYTNELIGSSFKIINGSLKSSCGCGSSFDIEN” here?
**A.** not soluble

**Q.** For “QIVLTQSPAIMSASPGEKVTMTCSASSSVSYMHWYQQKSGTSPKIWIYESSKLASGVPVRFSGSGSGTSYSLTISSMEAEDVATYYCQQWSSHPHPLTFGAGTKLELKRADAAPTVSIFPPSSEQLTSGGASVVCFLNNFYPKDINVKWKIDGSERQNGVLNSWTDQDSKDSTYSMSSTLTLTKDEYERHNSYTCEATHKTSTSPIVKSFNRNEC”, which “soluble on expression in E. coli” value is on record?
**A.** soluble
